Experiment: label from the status in PepcDB records

Sequence	protein production
MYKKNLMKLLPAVAVIIAIAAAGFQQDSEVKSTKTVQAAENELIKSDELTSLLTTAYFNDGGMKDTDEADSSILKTKKSKSKIKKAGITTGKTKALPEKSAAASGQGQGTTTTPTTSVPKGGYKDGIYQGSGTGFGGTITVQVTISGGKIASIEILSAAGETGSYFASAKGVISKMISGQTPNVDAVSGATYSSNGIIQAVQNALSKAGKGKAAKTTKKTTKKNTNTSNKTTIPVEITKPSGEVTYKDGMYTAEAEGFDGPIKVTVTIKDGKITAITNTNTDTKEYFNKAWNSIQPKILEKQAVYGVDTVIGATFSSNGILKAVQKALEQASVNVTPAPEVTVSPTPVPTTAPAPVIPDTPKVLYNDGTYTGTGIGYGGKINISVTIKDGIITEVSQTNEGETPRYFRNAWNVIQPAIIAKQSTDGIDTVSGATYSSEGILYGAKSALEQALKTSDITATPTPNPTATPEPTAAPEPTAAPEPTAAPEPTAAPEPTATPEPTATPEPTATPEPTTAPGAGYKDGSYTGTGEGFNGQVTVTINVSGGNIVSAGYDGEDDEPEFSNAWNGIYNQIMGKQSADGIDTVTDATYSSNGLIQAFQSAISQAK	failed
MYKLDHLNHNTLDESSLELHETPKGYTNVALFGLDSRDGELSGGVRSDSIMIVSINNKTGDVKIISVYRDTLLKQQDGSYEKANAAYSFGGPQEAVAMLNRNLDLDITKYASVNFNSLADIIDILGGVEVELTSEEIFWLNGYTAETSQVVGRQTHTLDENSPGVHNLDGIQAVSYTRIRYTAGDDFKRAERQRIILQKMIQKLKTAGPVKWNKILDQVLPEISTNMTTPDIMKLGLNIFRYKIGETKGFPFDITTSENVIGLEGSYAVAIGHADNVRQLHEQLFGETGYQPSDEVQQISQDVAYLTGVLEHHHHHH	not failed
MYKLMIADDEPLIRRGIKQLIDLSSLQIGEIYEASTGEEALKVFEEFKPEIVLMDINMPKIDGLSVAKKIKSINPDTKIAIITGYNYFDYAQTAIKIGVEDYILKPISKSDVSEIIVKLVSSLQKERKDKEIEKVLEKITTVDTQDNIAKNNYKELIQNIIEESYTDSQFTLSVLSEKLDLSSGYLSIMFKKNFGIPFQDYLLQKRMEKAKLLLLTTELKNYEIAEQVGFEDVNYFITKFKKYYQITPKQYREMVLKNENE	not failed
MYKSPLTLLTLLTICFGFFDLSSALYGSSSPVVQLTASNFKSKVLNSNGVVLVEFFAPWCGHCKALTPTWEKVANILKGVATVAAIDADAHQSAAQDYGIKGFPTIKVFVPGKAPIDYQGARDAKSIANFAYKQIKGLLSDRLEGKSKPTGGGSKEKKSEPSASVELNASNFDDLVIESNELWIVEFFAPWCGHCKKLAPEWKRAAKNLQGKVKLGHVNCDVEQSIMSRFKVQGFPTILVFGPDKSSPYPYEGARSASAIESFASELVESSAGPVEVTELTGPDVMEKKCGSAAICFISFLPDILDSKAEGRNKYLEMLLSVAEKFKKQPYSFMWVAAVTQMDLEKRVNVGGYGYPAMVAMNVKKGVYAPLKSAFELQHLLEFVKDAGTGGKGNVPMNGTPEIVKTKEWDGKDGELIEEDEFSLDELMGGDDAVGSKDEL	failed
MYKVGIVLFDDFTDVDFFLMNDLLGRTSDSWTVRILGTKPEHHSQLGMTVKTDGHVSEVKEQDVVLITSGYRGIPAALQDENFMSALKLDPSRQLIGSICAGSFVLHELGLLKGKKLTTNPDAKAVLQGMGGDVQDLPLVIEGNIATAGGCLSLLYLVGWLAERLFDSVKRKQIQNQLIPAGQMEIFETLISETIQSAESAYEYRSACESDAESLVV	not failed
MYLLDTTSTAAISIYALLLTAYRSMQVLYARPIDGPAVAAEPVETRPLPAVDVIVPSFNEDPGILSACLASIADQDYPGELRVYVVDDGSRNREAIVRVRAFYSRDPRFSFILLPENVGKRKAQIAAIGQSSGDLVLNVDSDSTIAFDVVSKLASKMRDPEVGAVMGQLTASNSGDTWLTKLIDMEYWLACNEERAAQSRFGAVMCCCGPCAMYRRSALASLLDQYETQLFRGKPSDFGEDRHLTILMLKAGFRTEYVPDAIVATVVPDTLKPYLRQQLRWARSTFRDTFLALPLLRGLSPFLAFDAVGQNIGQLLLALSVVTGLAHLIMTATVPWWTILIIACMTIIRCSVVALHARQLRFLGFVLHTPINLFLILPLKAYALCTLSNSDWLSRYSAPEVPVSGGKQTPIQTSGRVTPDCTCSGE	failed
MYLLRINIEGTINYGLYKYLYPALKAAEGKKSIAGLILVFNSGGGDAASSQLIHDLVKKIRKKKPVYSLALGICASGAYWIASASTKIYAIDTSLIGSIGVISIRPNVKKLMEKIGVDVMVYKSGKYKDMTSPFSEPNEEEKSVYQRLLDDIFEKFKRSVAEDRGIPSEKIDEIANGMVYSAKMAADNGLIDRIANYDDLVSDLTKEVGKRLKVKEFYIRKPLLQRLLGILEHHHHHH	failed
MYLLTFKGLIYSAGGTWLNKGNLMYFGSLIFLFLVVFLIFSEQRTEKTSGLEKVSVQEAKEMIEKGDVFVLDVRTPDEFNSSHIKGATLIPLSNAFGSNLSSESLLKAHIDEVPKEKILVYCRTGRRSDTAGRMLVNAGYTQVYNMVGGIIAWTDAGYPVVSSEDTESEGSHN	failed
MYNLLLTILLVLSGLLEIAIFMQPQKNPSSNVFDSSGSEALFERTKARGFEAFMQRFTAVLVFFWLAIALVLAILSSK	failed
MYNSRESILSNPVQSAIVSISFFSVVAIIIIAIYPEILSPQRKMERIDDFVVIIATLTFLFIGLSLINSFGTDNMEYTYEALNNFFQGKNPYEMVYGPHTVQPTYTLSGGVASNFIYPPFSFIVYIPIYLLIKAFNLPGYVLNAENVIFAVILGLLLYKIGKEKDDPFALFPVIFLYIITAVSIPPFYGVPIVIASTFLALSYVKKNYLGGISLALAISFSQLSWLAFPFLLIYRIRSDNVGKQFLRSSYFLSFLITLSIINIPFLAWNPVRFIGNIITLNTQLIPVGQIGLTVISYSGLYPMEPWFFTIVFGVVAIFLTYLYYQLFDYLKEIIWLFPLIISWFLWRTLTEYFFMWIPLIFTSLFRTQYKLPTIKLNFKKKIVLPLLIIFVFLASLSVYAHESYVASNPLKIDEVYTLQNTPPYTALIIKVQNTKNEPVNITLVRVSIPNNLNMVWNSTETVIPPNSSALVFAYASNSLEAINSTPFTVQVYSEYYFATYTVNSTQ	failed
MYPEKEYEELIKKIKTKVKEELNKNSKANVSGLNLDTAKRLADAAVKKAGEMGVNVAVAVMDIHGNMILFNRMDDSVLAAIEVAPKKAYTSAALRIPSSEVLKGGFDKLVETMEGKIAAFGGGLPVRSNGIFLGALGVSGGTSEEDIKIAEYAVNAVFG	failed
MYQTIEGFLQSWTYETESTQKMLDVLTDESLSQEIAPGHWTLGRVAWHIVTAIPVILSGTGLKFEGETKDYPVPTSAKTIADGYRKVNTAFVEALQSEWTDKDLTTINDFFGRPMPNSIFLMTLINHQNHHRGQMTVLMRQAGLTVPGVYGPAKEEWATAGMEAPKM	not failed
MYQVIIFALLFAGISSGFITFRIMGMRMAPHFGVLILALIATAANIMSGNVTLNYVAVALQVLTGISAYTQFLPVLRDSFQTAPLYACHLSTVTVAAVLAAASVPL	failed
MYSGAYSFVQISTAAYRISITRLEKTMESLQQQVAQLLEQQPTLLPAAMAEQLNVTEFDIVHALPEEMVAVVDGSHAQTILESLPEWGPVTTIMTIAGSIFEVKAPFPKGKVARGYYNLMGRDGELHGHLKLENISHVALVSKPFMGRESHYFGFFTAQGENAFKIYLGRDEKRELIPEQVARFKAMQQQHKQLEHHHHHH	not failed
MYSGFTREKSDLRTEDVEITKEPFTLLIMGIEDYATDGQNGRTDSLMFATVNPKTQKISLMSIPRDSRVPIVGKNKEDKINAAHAYGGEEMAIKTVEGFLKVPVDHYVKIDFQGFKGIVDAVGGVTVDVPFDFWERSDVDYYKKIQFKQGQQELNGEEALAYVRMRKQDPNGDYGRAARQRQLLAAVAQKLNSTSTVFKIKDLTSVVGKYIKTDIPISDGLALYKKLSGFDPSTIQTLKLEGEDKKIGGIYYFLPDPNGVEAVRNEIKKELGLEHHHHHH	not failed
MYSMSMGERGEAPDGMSGVIRYESLLAARTMAQRQPKKSAGCADSVESFRNPKPKPRFDKDVFCKTSAIRRLRSDFLHGDGSRGTGRHRAVARGPDGVRLHPAGRQRPNLPVASSASRTRHDQGSGRMSVVSAIIGTAERVPLPDVVIRAAIQRLCSRTATRISALGADDEAAFAGRMMLRPIAEDVDAANAGHDEAPASFIAQALGPNRKYSSCFYTTDATTLREAEEEALRQTVAHAGLADGQTILELGCGWGSLSLWTARQFPHAKVTAVSNSQGQRAYVEEQARLRGLLNLRVVTADMNVFAPEGQFDRIVSVEMFEHVMNWRKLMTRLRSWLAPEGRLFMHIVTHRSGSHLFDRANREDWIAQHVFTGGLMASHHLVRQFDDIFTVEKEWCWSGTHYQRTANDWLANFDAHRDAIEASLRNVHGDETALWMRRWRWFFLATSGLFGYAGGTEWGVSHYRMKAADEGVS	failed
MYSPIPPSLFQQIQPAYCGQEFILLRDNEEYKEIIVQAGRTYEISLMVESENSYIAWDFSLTQGKITMVIIFKTKYVTVNHLIAFSDD	failed
MYTKTKASISALLILITITLSSCSGTKNKDIYSRKNSNAAHTVATIGYDNKTYVSLKEAFKSVGGKCTLNGEGAIASKGKDIIKVSASSSTAYLNSSKIAMSANPKLKNNDIYVPMDFLNQVMDARITYSNGKLNIQTELPLKYTKAFNIKYLKGGIKKITDGNNKTVILVPKNKTVPAEYKNETVITYPVNNVLVSSATQGSLLRPLDEIKSIKTVTLKENEWEIDEIKSLLNDNKITYIGDTTSPDFEKISSSKPDVAILYGGSYGLNNMMKKFDELHINYTSDNEYLEEDPLGRLEWIKFLSAFYDKEDKAENYFNQQVSKVMATENKVSSLKKPKVAFGMVDNGKVYIPAKNSYAAKMVDMAGGDYIFKDLNNKSGYITLEDFYSKSKDADVLIYSSSKEYTPSLKSMLSAAPILKTIKPVKNKKVWCFGKDYYQAIDKTDEIIEDLASIFHPESFKGYKIKHYSHY	failed
MYTNRWEGLDEFVAVAECGQFTAAALRLGVSSSHVSRQIVRLEERLQTRLLYRSTRKVALTEAGQTFLHHCQRLQDGREEALRAVGDLASEPKGLLRMTCAVAYGERFITPLVTRFMELYPQLRVDIELSNDTLDLVHEGMDLAIRLGRLQDSRMVATRLAPRQMYLCASPSYLERYGRPHSLSELSRHNCLIGGSDTWQLQQNGREFSQRVQGNWRCNSGQAVLDAALQGVGLCQLPDYYVQKHLKEGALVSLLEAHQPPNTAVWALYPQQRHLSPKVRKLVDYLKEGLAMQDEYRQ	failed
MYVLIGGAGLIGQQLARQVLDQGHTVAVIDQDPQVCKMVRDRLGAMAFEGSAVNTDILLEAGICRADAVAAVLRQDALNLALVTLACHYGVSRIISRISQQDFIEPMRLAGAHHIISTVDLVVSTMVNAIECPQVESMLHFEQGQIEVFKLTLDSQSPVIGRSVAAIAQDRNFPSSSLIIGYQSHPQADLVIPSGNTVLEANATVLLATKPGLVQSLVNFLMPSLFSPLEHHHHHH	failed
MYVLVSSPFHYKQFTKFTIFSVFAGFSFIQNELTTYWFFILLFRQEITLFGLGVIARPLVRVFVSYLMGYISDKYDRAKLFYITRGISGILLFPLTFAFIYHSIPLIFGIYYIRTIIVELSNNVGYVAYYAVVPEQVRAKAIFYIRIISMASRVASGAVWYLIYQLISAYDLFLAGILGLIGLALLKGFNIGGGSKRVKLSTAIDFFRKDERIRGIILLYSVTDGLTYSINYLLPLLIIVYHGTEEIYSLSQTVLYGILVIASFVMTRIKDPIKIVSTYILSGFLFYLVLLYPSPYVLLISVLLYGFGSGIVENYVMATIKQSVGDEFLGSVLGLDVLVTSSVEIFLILLGQYLITINVVYYIIVGIVGMSLVLISWLLHPKLKDIKL	failed
